Tests used:
CYP71AZ4 = CYP71AZ4 (Pastinaca sativa, UniProt A0A2Z5D854); conditions: read-out: Apparent affinity (μM) / CYP71AZ4; NADPH; product xanthotoxol
COc1ccc2cc(C)c(=O)oc2c1 = test: cells, lysate or membranes; conditions: NADPH; product 8-hydroxy-3-methyl-7-methoxycoumarin
COc1cc2ccc(=O)oc2cc1O = test: cells, lysate or membranes; conditions: NADPH; product fraxetin
COc1ccc2oc(=O)ccc2c1 = test: cells, lysate or membranes; conditions: NADPH; product scopoletin (P04)
COc1ccc2ccc(=O)oc2c1 = test: cells, lysate or membranes; conditions: NADPH; product daphnetin 7-methyl ether
[1] = substrate: O=c1ccc2cc(O)c(O)cc2o1; test: cells, lysate or membranes; conditions: NADPH; product 6,7,8-trihydroxycoumarin

CYP71AZ4, sequence (A0A2Z5D854 whole entry): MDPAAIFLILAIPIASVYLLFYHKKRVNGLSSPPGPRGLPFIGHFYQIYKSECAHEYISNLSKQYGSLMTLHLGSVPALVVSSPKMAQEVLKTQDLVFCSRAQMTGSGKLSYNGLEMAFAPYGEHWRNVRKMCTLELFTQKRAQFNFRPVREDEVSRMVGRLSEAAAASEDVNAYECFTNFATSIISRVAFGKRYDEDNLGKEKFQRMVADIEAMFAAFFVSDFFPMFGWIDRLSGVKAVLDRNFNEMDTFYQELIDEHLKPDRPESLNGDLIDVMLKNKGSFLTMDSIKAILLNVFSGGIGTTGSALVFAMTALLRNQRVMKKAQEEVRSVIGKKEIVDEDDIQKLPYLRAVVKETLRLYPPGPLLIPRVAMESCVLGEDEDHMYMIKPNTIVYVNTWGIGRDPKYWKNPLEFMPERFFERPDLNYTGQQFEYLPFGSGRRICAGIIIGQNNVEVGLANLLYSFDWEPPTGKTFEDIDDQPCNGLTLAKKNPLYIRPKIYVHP

Molecule: O=c1ccc2cc3ccoc3cc2o1 [psoralen]
- Km (CYP71AZ4): 11.3 ± 2.2 µM

Molecule: CYP71AZ4 (Pastinaca sativa)
- Km (COc1ccc2cc(C)c(=O)oc2c1): 159.9 ± 41.1 µM
- Km (COc1cc2ccc(=O)oc2cc1O): 762.2 ± 586.4 µM
- Km (COc1ccc2oc(=O)ccc2c1): 9.5 ± 1.5 µM
- Km (COc1ccc2ccc(=O)oc2c1): 72.5 ± 15.2 µM

B1: CYP71AZ3 (Pastinaca sativa) (protein)
chain: MEPVFLFLILAFPIASVYLLFYHKKRVVGLSAPPGPPGLPFIGNFHQLYKASSTHEYLWSLSKQYGSLVTLRMGSVPILVVSSPKMAKEVLQTQDLIYCSRPAMTGMQKLSYNGLDVAFSPYTDQWRHTRKFCTLELFTQKRAQLNFRPVREQEVSRMIARLSETAAASKDVNAYEWFSNLATCIISRVAFGKRYDEDGIGKERFQRMLSEIDAMFIGFFVSDFFPMFGWIDKLSGMRDRLDRTFKDLDMFYQELIDEHLKPNRLESPTEDLIDVMLKNEGSSLTKDSMKAILLNVFNGGTGTTATVLAWAMTALLRNQGVMKKAQEEIRSVIGKKGKVDEDDFPSLPYLRAVVKETMRLYPPAPVLVPRETMESSIIGEDKDHMYMVKPKTVVYISMWAIGRDPKTWKNPMEFVPERFLERPDINYKGQQFEYVPFGAGRRICAGINLGVTTVELALANLLYTFDWEPPAGMRFEDIDDETTNGLALQKKNALYIRPKKYMFP
- Km [1]: 248.6 ± 51.9 µM

From PMC6018538, “The CYP71AZ P450 Subfamily: A Driving Factor for the Diversification of Coumarin Biosynthesis in Apiaceous Plants” (Frontiers in Plant Science, 2018)
